Earlier results, collected in patent US20200216492A1, “USE OF C-TERMINALLY EXTENDED PEPTIDES TO DISRUPT INHIBITOR NK CELL RECEPTOR INTERACTIONS WITH MHC I” (La Jolla Institute for Allergy and Immunology, priority 2016, published 2020).

Target: HLA-B*57:01 (Homo sapiens, UniProt P01889, D201E/D98Y/E176V/E187L/E204Q/E69M/E70A/G107R/I90N/K202T/L105A/L119I/N104I/N87E/Q89R/Q94S/R106L/R155S/R180L/R86G/S101N/S121V/S35A/S48A/T118I/V36M/Y140S/Y91M)
Conditions: previously determined; read-out: binding affinity KD to HLA-B*57:01

B1: KIR3DL1: inhibitory killer immunoglobulin receptor on NK cells binding HLA-B*57:01 (protein, UniProt P43629 22-444, looked up)
Killer cell …: HMGGQDKPFLSAWPSAVVPRGGHVTLRCHYRHRFNNFMLYKEDRIHIPIFHGRIFQESFNMSPVTTAHAGNYTCRGSHPHSPTGWSAPSNPVVIMVTGNHRKPSLLAHPGPLVKSGERVILQCWSDIMFEHFFLHKEGISKDPSRLVGQIHDGVSKANFSIGPMMLALAGTYRCYGSVTHTPYQLSAPSDPLDIVVTGPYEKPSLSAQPGPKVQAGESVTLSCSSRSSYDMYHLSREGGAHERRLPAVRKVNRTFQADFPLGPATHGGTYRCFGSFRHSPYEWSDPSDPLLVSVTGNPSSSWPSPTEPSSKSGNPRHLHILIGTSVVIILFILLLFFLLHLWCSNKKNAAVMDQEPAGNRTANSEDSDEQDPEEVTYAQLDHCVFTQRKITRPSQRPKTPPTDTILYTELPNAKPRSKVVSCP
Kd: 17 µM
